To fix the notation:
B1: Bicycle Compound Number 133 (TBMB scaffold) (peptide)
peptide: [Sar][Sar]ACP[1Nal]GPFWCPV[dA][hArg]PGC
modifications: linker 4-11-18 via TBMB
notes: also called Sar2-ACP(1Nal)GPFWCPV(D-Ala)(HArg)PGC
B2: Bicycle Compound Number 121 (TBMB scaffold) (peptide)
peptide: [Sar][Sar]ACP[1Nal]GPFWCP[Tle]NRPGC
modifications: linker 4-11-18 via TBMB
notes: also called Sar2-ACP(1Nal)GPFWCP(tBuGly)NRPGC
B3: Bicycle Compound Number 132 (TBMB scaffold) (peptide)
peptide: [Sar][Sar]ACP[1Nal]GPFWCP[Tle]NRP[dA]C
modifications: linker 4-11-18 via TBMB
notes: also called Sar2-ACP(1Nal)GPFWCP(tBuGly)NRP(D-Ala)C
B4: Bicycle Compound Number 129 (TBMB scaffold) (peptide)
peptide: [Sar][Sar]ACP[1Nal]GPFWCP[Tle][dA]RPGC
modifications: linker 4-11-18 via TBMB
notes: also called Sar2-ACP(1Nal)GPFWCP(tBuGly)(D-Ala)RPGC
B5: Bicycle Compound Number 117 (TBMB scaffold) (peptide)
peptide: [Sar][Sar]ACPWGPF[1Nal]CPV[dA]RPGC
modifications: linker 4-11-18 via TBMB
notes: also called Sar2-ACPWGPF(1Nal)CPV(D-Ala)RPGC
B6: Bicycle Compound Number 126 (TBMB scaffold) (peptide)
peptide: [Sar][Sar]ACP[1Nal]G[Aib]FWCP[Tle]NRPGC
modifications: linker 4-11-18 via TBMB
notes: also called Sar2-ACP(1Nal)G(Aib)FWCP(tBuGly)NRPGC
B7: Bicycle Compound Number 127 (TBMB scaffold) (peptide)
peptide: [Sar][Sar]ACP[1Nal]G[Aib]FWCPV[dA]RPGC
modifications: linker 4-11-18 via TBMB
notes: also called Sar2-ACP(1Nal)G(Aib)FWCPV(D-Ala)RPGC
B8: Bicycle Compound Number 115 (TBMB scaffold) (peptide)
peptide: [Sar][Sar]ACP[1Nal]GPFWCPV[dA]RPGC
modifications: linker 4-11-18 via TBMB
notes: also called Sar2-ACP(1Nal)GPFWCPV(D-Ala)RPGC
B9: Bicycle Compound Number 131 (TBMB scaffold) (peptide)
peptide: [Sar][Sar]ACP[1Nal]GPFWCP[Tle]NR[Aib]GC
modifications: linker 4-11-18 via TBMB
notes: also called Sar2-ACP(1Nal)GPFWCP(tBuGly)NR(Aib)GC

Starred links: 1 amine or outer side, 2 acyl side, 3 side chain; linkers in the order of their positions; H or OH if unused. Positions of bridges follow the written chain, without caps; N, C: chain ends. Non-standard residues stand in square brackets, D forms with d. Primed or numbered codes have the meaning given here. No end group written: not given here. TBMB′ = 1,3,5-tris(bromomethyl)benzene, 1,3,5-tris(methylene)benzene core, three thioethers to Cys; 1Nal = N[C@@H](Cc1cccc2ccccc12)C(=O)O; TBMB = c1c(C[*:1])cc(C[*:3])cc1C[*:2]; Hyp = O=C(O)[C@@H]1C[C@@H](O)CN1; hArg = N=C(N)NCCCC[C@H](N)C(=O)O; 4Pal = N[C@@H](Cc1ccncc1)C(=O)O; Tle = CC(C)(C)[C@H](N)C(=O)O; Aib = CC(C)(N)C(=O)O; Sar = CNCC(=O)O

Usually Ki stands for the equilibrium dissociation constant of an inhibitor or competing ligand from its target. Read a low Ki as higher affinity.

T1 sequence (P29317 24-537): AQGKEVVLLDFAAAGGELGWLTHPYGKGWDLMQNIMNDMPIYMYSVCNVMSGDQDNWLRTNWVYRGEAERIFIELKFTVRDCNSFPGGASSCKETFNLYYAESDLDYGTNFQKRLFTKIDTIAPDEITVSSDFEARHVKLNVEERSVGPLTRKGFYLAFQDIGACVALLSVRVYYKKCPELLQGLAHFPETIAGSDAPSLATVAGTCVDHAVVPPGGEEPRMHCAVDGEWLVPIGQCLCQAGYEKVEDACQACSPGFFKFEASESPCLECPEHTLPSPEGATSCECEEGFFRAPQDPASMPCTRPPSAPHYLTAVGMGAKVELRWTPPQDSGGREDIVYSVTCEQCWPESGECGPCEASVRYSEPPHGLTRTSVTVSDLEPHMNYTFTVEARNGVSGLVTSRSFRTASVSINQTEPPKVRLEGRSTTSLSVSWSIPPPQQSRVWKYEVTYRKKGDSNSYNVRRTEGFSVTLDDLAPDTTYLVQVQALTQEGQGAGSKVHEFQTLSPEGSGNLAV

The first experiment concerns the target T1, Human EphA2 (Ecto), C-terminal polyHis (Human, UniProt P29317 24-537).
T1 construct: extracellular domain; also called EPH receptor A2; ephrin type-A receptor 2
As to the kind of experiment: fluorescence polarisation competition; competitor fluorescent Compound 66. The protocol:
(§1) Peptides without a fluorescent tag were tested in competition with a peptide with a fluorescent tag and a known Kd (Table 2). Peptides were diluted to an appropriate concentration in assay buffer as described in the direct binding assay with a maximum of 5% DMSO, then serially diluted 1 in 2. […] Measurements were conducted as for the direct binding assay, however the gain was determined prior to the first measurement. Data analysis was in Systat Sigmaplot version 12.0 where the mP values were fit to a user defined cubic equation to generate a Ki value: […]
The molecule [Sar][Sar]ACP[1Nal]GPFWCPVN[hArg]PGC (linker 4-11-18 via TBMB, also called Compound 122) [Bicycle Compound Number 122 (TBMB scaffold)] came in with an inhibitory constant (Ki) of 8 nM.
Same read-out and setting: with [Sar][Sar]ACP[1Nal]GPFWCPVN[hArg]P[dA]C (linker 4-11-18 via TBMB) [Bicycle Compound Number 134 (TBMB scaffold)] the figure was 6.15 nM; with B1, 3.7 nM; with B2, 2 nM.
On the same count and under the same terms, to B3 belongs 8.7 nM.
The same measure, in the same setting: to B4 belongs 15 nM; to [Sar][Sar]ACPWGPF[1Nal]CPVNRPGC (linker 4-11-18 via TBMB′, also called Compound 96) [Bicycle Compound Number 96 (TBMB scaffold)], 68.1 nM; to B5, 75 nM.
For [Sar][Sar]ACPWG[Aib]F[1Nal]CPVNRPGC (linker 4-11-18 via TBMB) [Bicycle Compound Number 123 (TBMB scaffold)], the inhibition constant Ki is 46 nM. This Ki is about 1.6-fold lower than that of the molecule before.
The same measure, in the same setting: with [Sar][Sar]ACPWGP[4Pal]WCPVNRPGC (linker 4-11-18 via TBMB′, also called Compound 84) [Bicycle Compound Number 84 (TBMB scaffold)] the figure was 81.5 nM.
Still for that read-out and setting: with [Sar][Sar]ACPWGPFWCPVNR[Hyp]GC (linker 4-11-18 via TBMB) [Bicycle Compound Number 107 (TBMB scaffold)] the figure was 85.8 nM; with [Sar][Sar]ACPWGPFWCPV[dA]RPGC (linker 4-11-18 via TBMB) [Bicycle Compound Number 102 (TBMB scaffold)], 312 nM; with [Sar][Sar]ACPWGPFWCPVNRAGC (linker 4-11-18 via TBMB) [Bicycle Compound Number 104 (TBMB scaffold)], 194 nM.
The same measure, in the same setting: with [Sar][Sar]ACPWGPFWCPVNRPAC (linker 4-11-18 via TBMB) [Bicycle Compound Number 111 (TBMB scaffold)] the figure was 238 nM; with AEGLPCPWGPFWCPVNRPGCA (linker 6-13-20 via TBMB (inferred), also called Compound 55) [Bicycle Compound Number 55 (TBMB scaffold)], 6.15 nM; with ADVHCPWGPFWCPVNRPGCA (linker 5-12-19 via TBMB (inferred), also called Compound 57) [Bicycle Compound Number 57 (TBMB scaffold)], 1.2 nM.
As to [Sar][Sar]ACPWGPFWCPVNR[Aib]GC (linker 4-11-18 via TBMB, also called Compound 110) [Bicycle Compound Number 110 (TBMB scaffold)], affinity was put at a Ki of 140 nM. This Ki is about 120-fold higher than that of the molecule before.
The same measure, in the same setting: to B6 belongs 19 nM.
On the same count and under the same terms, with [Sar][Sar]ACPWGPFWCPVN[hArg]PGC (linker 4-11-18 via TBMB) [Bicycle Compound Number 103 (TBMB scaffold)] the figure was 169 nM; with B7, 33 nM.
Turning to [Sar][Sar]ACP[1Nal]G[Aib]FWCPVNRP[dA]C (linker 4-11-18 via TBMB) [Bicycle Compound Number 128 (TBMB scaffold)], the Ki came out at 16 nM.
With [Sar][Sar]ACPWGPFWCP[Tle]NRPGC (linker 4-11-18 via TBMB, also called Compound 100) [Bicycle Compound Number 100 (TBMB scaffold)], the Ki amounted to 112 nM. This Ki lies about 7-fold higher than the previous one.
The molecule [Sar][Sar]ACP[1Nal]GPF[1Nal]CPVNRPGC (linker 4-11-18 via TBMB, also called Compound 120) [Bicycle Compound Number 120 (TBMB scaffold)] yielded an inhibitory constant (Ki) of 0.98 nM.
In the case of [Sar][Sar]AC[Aib][1Nal]GPFWCPVNRPGC (linker 4-11-18 via TBMB) [Bicycle Compound Number 113 (TBMB scaffold)], the Ki turned out to be 6.6 nM.
Turning to [Sar][Sar]AC[Aib][1Nal]GPFWCPVNRP[dA]C (linker 4-11-18 via TBMB) [Bicycle Compound Number 125 (TBMB scaffold)], the Ki worked out at 0.61 nM. This Ki is about 11-fold lower than that of the molecule before.
Still for that read-out and setting: to B8 belongs 1.64 nM; to [Sar][Sar]ACP[1Nal]GPFWCPVNRP[dA]C (linker 4-11-18 via TBMB) [Bicycle Compound Number 116 (TBMB scaffold)], 3.2 nM.
Take B9: the Ki worked out at 6.8 nM.

In another experiment the target is Human EphA2 (Ecto) (Human) (UniProt P29317). The experiment is described as follows: FP competition, tracer Compound 18.
Chain of Human EphA2 (Ecto) (Human) (P29317 24-537): as the sequence (P29317 24-537) above
Ac-[Sar][Sar]A[dD]VTCP[1Nal]G[Aib]F[1Nal]CP[Tle]N[hArg]PGC (linker 7-14-21 via TBMB) [Bicycle Compound 182] returned an inhibition constant (Ki) of 1.16 nM.

A further experiment concerns the target T1, Human EphA2 (Ecto), C-terminal polyHis. As to the kind of experiment: fluorescence polarisation competition; competitor fluorescent Compound 18. The protocol:
as §1
Consider [Sar][Sar]ACP[1Nal]GPFWCPVN[hArg]PGC (linker 4-11-18 via TBMB, also called Compound 122) [Bicycle Compound Number 122 (TBMB scaffold)], for which the Ki is 9.55 nM.
On to [Sar][Sar]ACP[1Nal]GPFWCPVN[hArg]P[dA]C (linker 4-11-18 via TBMB) [Bicycle Compound Number 134 (TBMB scaffold)], for which the Ki was 1.2 nM.
The same measure, in the same setting: to B1 belongs 14 nM; to B2, 3.65 nM.
For the molecule B3, the affinity corresponds to a Ki of 7.7 nM.
Still for that read-out and setting: with B4 the figure was 23 nM; with [Sar][Sar]ACPWGPF[1Nal]CPVNRPGC (linker 4-11-18 via TBMB′, also called Compound 96) [Bicycle Compound Number 96 (TBMB scaffold)], 31.3 nM; with B5, 53 nM.
On the same count and under the same terms, to [Sar][Sar]ACPWG[Aib]F[1Nal]CPVNRPGC (linker 4-11-18 via TBMB) [Bicycle Compound Number 123 (TBMB scaffold)] belongs 63 nM; to [Sar][Sar]ACPWGP[4Pal]WCPVNRPGC (linker 4-11-18 via TBMB′, also called Compound 84) [Bicycle Compound Number 84 (TBMB scaffold)], 33.5 nM; to [Sar][Sar]ACPWGPFWCPVNR[Hyp]GC (linker 4-11-18 via TBMB) [Bicycle Compound Number 107 (TBMB scaffold)], 48.7 nM.
Still for that read-out and setting: to [Sar][Sar]ACPWGPFWCPV[dA]RPGC (linker 4-11-18 via TBMB) [Bicycle Compound Number 102 (TBMB scaffold)] belongs 317 nM; to [Sar][Sar]ACPWGPFWCPVNRAGC (linker 4-11-18 via TBMB) [Bicycle Compound Number 104 (TBMB scaffold)], 124 nM; to [Sar][Sar]ACPWGPFWCPVNRPAC (linker 4-11-18 via TBMB) [Bicycle Compound Number 111 (TBMB scaffold)], 108 nM.
Molecule AEGLPCPWGPFWCPVNRPGCA (linker 6-13-20 via TBMB (inferred), also called Compound 55) [Bicycle Compound Number 55 (TBMB scaffold)] gave an inhibition constant (Ki) of 11.3 nM. Against the preceding molecule, the Ki is about 9.6-fold lower.
The same measure, in the same setting: with ADVHCPWGPFWCPVNRPGCA (linker 5-12-19 via TBMB (inferred), also called Compound 57) [Bicycle Compound Number 57 (TBMB scaffold)] the figure was 0.48 nM; with [Sar][Sar]ACPWGPFWCPVNR[Aib]GC (linker 4-11-18 via TBMB, also called Compound 110) [Bicycle Compound Number 110 (TBMB scaffold)], 75 nM; with B6, 15 nM.
The same measure, in the same setting: with [Sar][Sar]ACPWGPFWCPVN[hArg]PGC (linker 4-11-18 via TBMB) [Bicycle Compound Number 103 (TBMB scaffold)] the figure was 126 nM.
Still for that read-out and setting: with B7 the figure was 40 nM.
On to [Sar][Sar]ACP[1Nal]G[Aib]FWCPVNRP[dA]C (linker 4-11-18 via TBMB) [Bicycle Compound Number 128 (TBMB scaffold)], for which the affinity, expressed as Ki, was 15 nM.
On the same count and under the same terms, with [Sar][Sar]ACPWGPFWCP[Tle]NRPGC (linker 4-11-18 via TBMB, also called Compound 100) [Bicycle Compound Number 100 (TBMB scaffold)] the figure was 58.3 nM.
Still for that read-out and setting: with [Sar][Sar]ACP[1Nal]GPF[1Nal]CPVNRPGC (linker 4-11-18 via TBMB, also called Compound 120) [Bicycle Compound Number 120 (TBMB scaffold)] the figure was 1.4 nM; with [Sar][Sar]AC[Aib][1Nal]GPFWCPVNRPGC (linker 4-11-18 via TBMB) [Bicycle Compound Number 113 (TBMB scaffold)], 10 nM.
The same measure, in the same setting: with [Sar][Sar]AC[Aib][1Nal]GPFWCPVNRP[dA]C (linker 4-11-18 via TBMB) [Bicycle Compound Number 125 (TBMB scaffold)] the figure was 6.4 nM.
On to B8, for which the affinity corresponds to a Ki of 12.5 nM.
On the same count and under the same terms, to [Sar][Sar]ACP[1Nal]GPFWCPVNRP[dA]C (linker 4-11-18 via TBMB) [Bicycle Compound Number 116 (TBMB scaffold)] belongs 2.95 nM; to B9, 11 nM.

The values above are taken from patent US11814447B2, “Peptide ligands for binding to EphA2” (BICYCLERD LIMITED, priority 2018, dated 2023).
